According to the Human Domainome abundance scans (Beltran et al. 2025):

B1: Nucleosome-remodeling factor subunit BPTF, residues 2862 to 2918; numbered along this chain, Q12830 (parent)
chain: TKKDTKLYCICKTPYDESKFYIGCDRCQNWYHGRCVGILQSEAELIDEYVCPQCQST

Variants of: B1
Assay: abundance fitness (aPCA) (normalised: wild type 0, dead -1); higher = more abundant; growth selection in yeast, the domain comes from the species named
Conditions: Homo sapiens

Abundance fitness of substitutions, site by site:
K6: N -0.045; R -0.086; Q -0.032; M -0.013; I -0.08; H -0.057; V -0.161; T 0.008; E -0.042; S -0.035; G -0.071; C -0.161; A 0.069; F -0.278; L -0.085; D -0.062; P 0.034
C9: Q -0.846; V -0.986; A -0.877; E -0.971; L -0.815; N -0.932; T -0.851; P -0.716; I -1.05; D -0.827; H -0.838; F -0.916; G -0.801; K -0.706; R -0.879
K3: D -0.097; L -0.111; I -0.057; C -0.697; M -0.152; T 0.013; W -0.629; G -0.148; Y -0.273; S 0.036; N -0.379; F -0.041; V -0.009; H -0.424; R -0.131; E 0.014; Q -0.032
T5: N 0.016; V -0.282; E 0.064; G -0.155; I -0.017; H -0.055; W -0.238; L -0.092; A -0.213; K 0.05; D 0.028; C 0.002; M 0.024; Y -0.016; F -0.076; Q -0.052; S -0.071
Y8: G 0.051; I -0.166; W -0.164; K 0.065; T -0.041; M 0.015; R -0.105; A 0.065; C -0.028; D 0.072; F -0.037; Q 0.054; V -0.081; P -0.298; S -0.014; E 0.166; L -0.043
I10: N -0.446; H -0.084; S -0.387; E -0.129; G -0.387; F -0.307; Y -0.234; C -0.245; V -0.218; W -0.398; Q -0.472; M -0.252; R -0.368; K -0.218; P -0.395; T -0.249; D -0.278
C11: M -0.803; S -0.934; F -1.12; A -0.934; V -1.03; R -0.818; L -0.828; P -0.802; E -0.638; K -0.822; Y -0.997; H -1.01; Q -0.947; W -1.09; N -0.857; G -0.771; I -0.968; D -0.759
K12: W -0.56; R -0.07; D -0.2; P -0.907; T -0.106; I -0.869; H -0.061; V -0.808; Q 0.006; L -0.121; M -0.167; S -0.119; E -0.025; C -0.104; F -0.253; N -0.233
L7: A -0.014; F -0.089; H 0.018; N 0.037; Y -0.022; D 0.023; R -0.18; S -0.046; C -0.058; P -0.071; W -0.13; V -0.076; I -0.179; T -0.012; G -0.005; K -0.219
D4: P -0.112; F -0.226; I -0.179; H -0.195; R -0.446; S -0.008; E -0.005; G -0.163; C -0.316; A -0.18; K -0.005; M -0.088; T -0.124; N -0.087; Y -0.154; L -0.238; V -0.215
